Sequences and labels used below:
B1: Site 3 peptide (pT360) (peptide)
chain: Ac-ATTENK[pT]LPRSSS-NH2
SMILES: CC(=O)N[C@@H](C)C(=O)N[C@H](C(=O)N[C@H](C(=O)N[C@@H](CCC(=O)O)C(=O)N[C@@H](CC(N)=O)C(=O)N[C@@H](CCCCN)C(=O)N[C@H](C(=O)N[C@@H](CC(C)C)C(=O)N1CCC[C@H]1C(=O)N[C@@H](CCCNC(=N)N)C(=O)N[C@@H](CO)C(=O)N[C@@H](CO)C(=O)N[C@@H](CO)C(N)=O)[C@@H](C)OP(=O)(O)O)[C@@H](C)O)[C@@H](C)O
B2: Site 4 peptide (pS366) (peptide)
chain: Ac-TLPRSS[pS]MAAGLEK-NH2
SMILES: CSCC[C@H](NC(=O)[C@H](COP(=O)(O)O)NC(=O)[C@H](CO)NC(=O)[C@H](CO)NC(=O)[C@H](CCCNC(=N)N)NC(=O)[C@@H]1CCCN1C(=O)[C@H](CC(C)C)NC(=O)[C@@H](NC(C)=O)[C@@H](C)O)C(=O)N[C@@H](C)C(=O)N[C@@H](C)C(=O)NCC(=O)N[C@@H](CC(C)C)C(=O)N[C@@H](CCC(=O)O)C(=O)N[C@@H](CCCCN)C(N)=O
B3: Site 2 peptide (pT340) (peptide)
chain: Ac-LSDSYSN[pT]LPVRKS-NH2
SMILES: CC(=O)N[C@@H](CC(C)C)C(=O)N[C@@H](CO)C(=O)N[C@@H](CC(=O)O)C(=O)N[C@@H](CO)C(=O)N[C@@H](Cc1ccc(O)cc1)C(=O)N[C@@H](CO)C(=O)N[C@@H](CC(N)=O)C(=O)N[C@H](C(=O)N[C@@H](CC(C)C)C(=O)N1CCC[C@H]1C(=O)N[C@H](C(=O)N[C@@H](CCCNC(=N)N)C(=O)N[C@@H](CCCCN)C(=O)N[C@@H](CO)C(N)=O)C(C)C)[C@@H](C)OP(=O)(O)O

Where no end group is shown, it is not given here. [ ]: non-standard residue; d: D form. pT = C[C@@H](OP(=O)(O)O)[C@H](N)C(=O)O; pS = N[C@@H](COP(=O)(O)O)C(=O)O

The test addresses T1, 14-3-3θ (human, UniProt P27348 1-245).
T1 chain: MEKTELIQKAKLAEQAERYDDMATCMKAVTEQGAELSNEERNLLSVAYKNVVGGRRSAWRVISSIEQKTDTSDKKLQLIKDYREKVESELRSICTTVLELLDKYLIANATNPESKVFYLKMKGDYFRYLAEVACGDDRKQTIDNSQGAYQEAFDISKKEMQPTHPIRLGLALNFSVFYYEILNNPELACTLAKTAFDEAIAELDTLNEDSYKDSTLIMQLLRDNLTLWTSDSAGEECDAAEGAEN
The test can be described thus: ITC.
The molecule AQPKSL[pS]PPQSQSKLSDSYSN[pT]LPVRKS [Sites 1,2 peptide (pS325/pT340)] registered a Kd of 16.2 µM. B1 had a Kd of 15.5 µM. Take B2: the dissociation constant (Kd) was found to be 16.5 µM. To B3 belongs 5.5 µM.

By Kd is commonly meant the free concentration of one partner at which half of the binding sites on the other are occupied at equilibrium, for simple one-to-one binding. Read a high Kd as weaker binding.

These data come from paper PMC6351565 (2019).
